# Laboratory results published in publication PMC2631437 (Molecular microbiology, 2008).
# T1: MotA S80R (bacteriophage T4, UniProt P22915 1-211, S80R)
# T1 sequence: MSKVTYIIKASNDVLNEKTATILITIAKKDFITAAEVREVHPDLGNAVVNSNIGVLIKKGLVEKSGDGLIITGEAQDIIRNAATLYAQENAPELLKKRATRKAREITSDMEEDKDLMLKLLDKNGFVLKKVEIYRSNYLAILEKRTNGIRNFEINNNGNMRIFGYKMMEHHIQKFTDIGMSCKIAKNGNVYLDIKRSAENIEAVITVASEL
# T2: MotA K28E (bacteriophage T4, UniProt P22915 1-211, K28E)
# T2 sequence: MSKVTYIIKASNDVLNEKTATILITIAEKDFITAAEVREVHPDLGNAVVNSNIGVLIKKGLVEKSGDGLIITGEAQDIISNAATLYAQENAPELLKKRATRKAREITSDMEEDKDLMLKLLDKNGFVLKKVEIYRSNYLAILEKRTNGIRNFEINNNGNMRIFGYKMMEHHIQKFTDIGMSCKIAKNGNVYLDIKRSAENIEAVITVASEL
# T3: MotA K59E (bacteriophage T4, UniProt P22915 1-211, K59E)
# T3 sequence: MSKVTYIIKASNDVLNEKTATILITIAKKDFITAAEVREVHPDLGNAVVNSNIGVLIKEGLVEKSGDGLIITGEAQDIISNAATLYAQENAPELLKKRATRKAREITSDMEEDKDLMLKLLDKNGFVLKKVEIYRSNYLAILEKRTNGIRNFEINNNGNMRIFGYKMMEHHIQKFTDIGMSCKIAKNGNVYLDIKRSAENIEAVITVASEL
# T4: MotA Q76R (bacteriophage T4, UniProt P22915 1-211, Q76R)
# T4 sequence: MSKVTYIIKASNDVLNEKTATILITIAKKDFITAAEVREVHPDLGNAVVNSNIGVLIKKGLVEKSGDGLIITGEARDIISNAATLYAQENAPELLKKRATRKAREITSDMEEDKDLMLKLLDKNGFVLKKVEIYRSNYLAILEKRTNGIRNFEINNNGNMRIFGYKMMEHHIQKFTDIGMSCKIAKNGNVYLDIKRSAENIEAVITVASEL
# T5: MotA K3E (bacteriophage T4, UniProt P22915 1-211, K3E)
# T5 sequence: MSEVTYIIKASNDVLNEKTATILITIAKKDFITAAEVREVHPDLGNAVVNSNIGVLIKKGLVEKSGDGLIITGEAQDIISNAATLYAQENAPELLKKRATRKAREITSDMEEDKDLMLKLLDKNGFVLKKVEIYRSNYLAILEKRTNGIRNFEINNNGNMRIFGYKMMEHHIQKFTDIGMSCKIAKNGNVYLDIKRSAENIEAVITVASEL
# T6: MotA D43K (bacteriophage T4, UniProt P22915 1-211, D43K)
# T6 sequence: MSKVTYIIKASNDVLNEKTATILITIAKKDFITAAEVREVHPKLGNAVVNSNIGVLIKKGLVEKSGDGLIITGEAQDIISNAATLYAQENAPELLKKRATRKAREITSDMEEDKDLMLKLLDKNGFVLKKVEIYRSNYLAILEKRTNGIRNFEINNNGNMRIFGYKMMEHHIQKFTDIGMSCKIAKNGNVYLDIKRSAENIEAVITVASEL
# B1: 21 bp MotA box DNA (dsDNA)
# DNA 1: GAATTATTTGCTTTAGATTAC
# DNA 2: GTAATCTAAAGCAAATAATTC
# Key:
# Assay in all cases: EMSA
# [1] = target: T1, MotA S80R
# [2] = target: T2, MotA K28E
# [3] = target: T3, MotA K59E
# [4] = target: T4, MotA Q76R
# [5] = target: T5, MotA K3E
# [6] = target: T6, MotA D43K
binder,measurement,setting,value
B1,Kd,[1],~600 nM
same,Kd,[2],~500 nM
same,Kd,[3],~500 nM
same,Kd,[4],~600 nM
same,Kd,[5],~500 nM
same,Kd,[6],~500 nM
